# Experimental data from US5885961A, “Methods of using epithelins to modulate cell proliferation” (Bristol-Myers Squibb Company, priority 1995, dated 1999).
# “Also recorded” adds a separate entry of the source. Where two headings read alike, the source gives them in different places.
# B1: epithelin precursor: unprocessed 589-residue rat preprotein (SEQ ID NO:2) with 7 cysteine-rich motifs, expressed in COS cells (protein)
# chain: MWILVSWLALVARLVAGTQCPDGQFCPVACCLDQGGANYSCCNPLLDTWPIITSRRLDGSCQIRDHCPDGYSCLLTVSGTSSCCPFSEGVSCDDGQHCCPRGFHCSADGKSCSQISDSLLGAVQCPGSQFECPDSATCCIMIDGSWGCCPMPQASCCEDRVHCCPHGASCDLVHTRCISPTGTHPLLKKFPAQRTNRAVAFPFSVVCPDAKTQCPDDSTCCELPTGKYGCCPMPNAICCSDHLHCCPQDTVCDLIQSKCISKDYTTDLMTKLPGYPVNEVKCDLEVSCPDGYTCCRLNTGAWGCCPFTKAVCCEDHIHCCPAGFQCHTETGTCELGVLQVPWMKKVTASLSLPDPQILKNDVPCDDFSSCPSNNTCCRLSSGDWGCCPIPEAVCCLDHQHCCPQGFKCMDEGYCQKGDRMVAGLEKMPVRQTTLLQHGDIGCDQHTSCPVGQTCCPSLKGSWACCQLPHAVCCEDRQHCCPAGYTCNVKARTCEKDAGSVQPSMDLTFGSKVGNVECGAGHFCHDNQSCCKDSQGGWACCPYVKGVCCRDGRHCCPIGFHCSAKGTKCLRKKTPRWDILLRDPAPRPLL
# B2: epithelin 1: single chain polypeptide of 56 amino acid residues, 12 cysteines, purified from rat kidney; also expressed recombinantly in COS cells (protein)
# chain: LPGYPVNEVKCDLEVSCPDGYTCCRLNTGAWGCCPFTKAVCCEDHIHCCPAGFQCHTETGTCEL
# How the values were obtained:
# NRK-SA6 cells = test: Soft agar colony assay in the presence of TGFβ; assay type: cell-based, rat; conditions: in the presence of TGFβ 1 ng/ml, FIG. 17
# Protocol: FIG. 17. Effect of epithelin 1 and 2 on NRK-SA6 cell colony formation in soft agar in the presence of TFGβ (1 ng/ml). The colony formation assay used is described in Section 6.2.3, infra. Solid bars, epithelin 1; stippled bar, epidermal growth factor; open bar, epithelin 2; hatched bar, 20 ng/ml epithelin 1 plus 500 ng/ml epithelin 2.
# A 0.38 ml base layer of 0.5% agar (Agar Noble; Difco Laboratories, Detroit, Mich.) in DMEM containing 10% heat inactivated FBS was added to 24 well Costar tissue culture plates. 0.38 ml of 0.3% agar containing the same medium-FBS mixture, 6-12×10^3 test cells, and the test proteins at various concentrations were overlaid on the basal layer of agar. The plates were incubated at 37° C. in a humidified atmosphere of 5% CO2 in air. Colonies were enumerated unfixed and unstained, and the number of colonies was scored between days 7 and 10. Colonies were defined as a cluster of at least eight cells.
# [1] = test system: A431 human epidermoid carcinoma cells; test: Cell growth inhibitory activity (GIA), 125I-deoxyuridine incorporation into DNA; assay type: cell-based; conditions: for potency relative to epithelin 2 in inhibiting A431 cells: epithelin 1 vs epithelin 2
# Protocol: The cell growth inhibitory activity (GIA) assays were performed in flat-bottom 96 well plates (Falcon 3072). Human epidermoid carcinoma of vulva cells (A431) were used as test cells for GIA. 3.5×10^3 cells in 50 μl of test medium (DMEM supplemented with 5% heat inactivated fetal bovine serum (FBS), penicillin/streptomycin (PS) and glutamine) were placed in all wells except peripheral wells. The peripheral wells received 50 μl PBS. Three hours later, 50 μl of test sample in test medium was added to each well, while control wells received only 50 μl of test medium. Three wells were used for each concentration of test sample. Plates were incubated at 37° C. for 2-3 days. Then, 100 μl of a solution of […] (^125 I-IUdR, 4Ci/mg-0.5 mCi/ml, 2 μl/ml in test medium) was added to each well and plates were incubated at 37° C. After 4-6 hours, the medium was aspirated from the wells, which were then washed once with 200 μl PBS. Then, 200 μl methanol was added to each well, plates were incubated for 10 minutes at room temperature, and the methanol was removed by aspiration. 200 μl of 1M sodium hydroxide was added to each well, the plates were incubated for 30 minutes at 37° C. Sodium hydroxide was removed with titertek plugs (Flow Labs). The plugs were transferred into 12×75 mm plastic tubes and counted in a gamma counter to quantify ^125 I-IUdR incorporation.
# Balb/MK cells [2] = test: Murine keratinocyte growth assay (cell count); assay type: cell-based; conditions: FIG. 16A
# Protocol: FIG. 16(A-B). (FIG. 16A) Effect of epithelin 1 and epidermal growth factor (EGF) on the growth of Balb/MK cells. Assays were performed as described in Section 6.2., infra. .circle-solid., epithelin 1; o, EGF (FIG. 16B) Effect of various concentrations of epithelin 2 on the epithelin 1 (20 ng/ml) induced growth of murine keratinocytes.
# Balb/MK cells were plated at 1×10^4 cells per well in 1 ml of low calcium medium (Weissman and Aaronson, 1983, Cell 32:599-606; Carpenter and Zendegut, 1985, Anal. Biochem. 153:279-282) in 24-well Costar plates and incubated at 37° C. for 4-6 hours. Then media were removed and replaced with 1 ml of medium containing various concentrations of the test compound in triplicate. The control wells received only medium without any test material. The plates were incubated at 37° C. for 4 days, then medium was removed, wells were rinsed two times with 1 ml of phosphate-buffered saline, and the cells were detached with trypsin-EDTA and counted.
# mink lung CCL 64 cells = test: 125I-deoxyuridine incorporation into DNA, CCL 64; assay type: cell-based
# monkey kidney COS1 cells = test: 125I-deoxyuridine incorporation into DNA, COS1; assay type: cell-based
# EGF receptors = EGF receptors (Homo sapiens, UniProt P00533); test: Binding of 125I-EGF to its receptors
# [3] = test system: human fibroblasts and several other human tumor cells; test: 125I-deoxyuridine incorporation into DNA, human fibroblasts and other human tumor cells; assay type: cell-based; conditions: maximum dose tested: 20 ng/ml epithelin 1, 270 ng/ml epithelin 2
# [4] = test system: human colon carcinoma cell line HCT 116; test: 125I-deoxyuridine incorporation into DNA, HCT 116; assay type: cell-based; conditions: maximum dose tested: 20 ng/ml epithelin 1, 270 ng/ml epithelin 2
# [5] = Resistance of bioactivity to chemical, heat and enzyme treatment; assay type: physicochemical
# Protocol: Epithelin 1 and epithelin 2 are resistant to treatment with 1M acetic acid, 1M ammonium hydroxide, 6M urea, 0.01M sodium metaperiodate, to heating at 56° C. for 30 minutes, and to treatment with various glycosidases or lipases. However, epithelin activity was sensitive to reduction, to reduction and 4-vinylpyridine treatment, and to digestion with proteinases such as trypsin, endoproteinase Lys-C, and endoproteinase Glu-C (V8).
# Balb/MK cells [6] = test: Growth stimulatory activity (GSA), 125I-deoxyuridine incorporation into DNA of murine keratinocytes; assay type: cell-based; conditions: FIG. 15A
# Protocol: FIG. 15(A-B). (FIG. 15A) Effect of epithelin 1 and epithelin 2 on the stimulation of ^125 I-deoxyuridine incorporation into DNA of the murine keratinocyte cell line Balb/MK. 2,000-4,000 cells were plated per well in 96 well plates in low-calcium medium containing 5% dialyzed FBS. Then GSA assays were performed as described in Section 6.2., infra. .circle-solid., epithelin 1; o, epithelin 2. (FIG. 15B) Effect of various concentrations of epithelin 2 on epithelin 1 (20 ng/ml) elicited incorporation of ^125 I-deoxyuridine into DNA of Balb/MK cells.
# Balb/MK cells were also used as indicator cells in 96 well plates to assess the growth inhibitory activity (GIA) or growth stimulatory activity (GSA) of a test material using ^125 I-deoxyuridine incorporation into DNA as described in the previous section.
# NRK cells = test: Mitogenic activity on NRK cells in monolayer; assay type: cell-based, rat
molecule,measurement,setting,value
B1,anchorage-independent growth (colony formation in soft agar) of NRK cells,NRK-SA6 cells,no activity
same,effect on A431 cells,[1],no activity
same,effect on growth of Balb/MK cells (rodent keratinocytes),Balb/MK cells [2],no activity
B2,effect on 125I-deoxyuridine incorporation into DNA,mink lung CCL 64 cells,significantly inhibited
same,effect on 125I-deoxyuridine incorporation into DNA,monkey kidney COS1 cells,significantly inhibited
same,effect on binding of 125I-EGF to its receptors,EGF receptors,Neither epithelin 1 nor epithelin 2 significantly affected the binding
same,anchorage-independent growth (colony formation in soft agar) of NRK cells,NRK-SA6 cells,induced the anchorage-independent growth of NRK cells in a dose-dependent manner; also recorded: can induce anchorage-independent growth
same,effect on human fibroblasts and several other human tumor cells,[3],Neither protein exhibited any significant effect
same,effect on growth of HCT 116 cells,[4],slighly inhibited
same,effect on A431 cells,[1],inhibitory effect
same,50% inhibition of DNA synthesis (125I-deoxyuridine incorporation),"[1]; A431 cells, purified protein, FIG. 14",12.8 ng/well
same,IC50,"[1]; A431 cells, read-out: concentration for 50% inhibition of 125I-deoxyuridine incorporation",~21 nM
same,potency relative to epithelin 2 in inhibiting A431 cells,[1],~36 times
same,potency relative to epithelin 2 in inhibiting A431 cells,[1]; listed as Epithelin 1,about 36 times
same,Specific Activity,"[1]; final purification step Anal. Tsk-250, pool 1b","20,609 Units/mg"
same,Specific Activity,"[1]; final purification step Anal. Tsk-250, pool 2b","21,048 Units/mg"
same,specific activity of purified protein (GIA),[1]; one unit = amount inhibiting 125I-deoxyuridine incorporation into A431 cells by 50%,about 2.1×10^4 units/mg protein
same,calculated specific activity relative to epithelin 2,[1]; purified proteins,ten
same,growth inhibitory activity secreted by transfected COS cells,"[1]; recombinant, supernatant of cβrEPN1 transfection partially purified on TSK-250, A431 cells",approximately 25 GIA units/100 mm plate
same,"resistance to 1M acetic acid, 1M ammonium hydroxide, 6M urea, 0.01M sodium metaperiodate, heating at 56° C. for 30 minutes, glycosidases or lipases",[5],stable
same,"sensitivity of activity to reduction, reduction and 4-vinylpyridine treatment, and proteinases (trypsin, Lys-C, Glu-C)",[5],sensitive
same,"resistance to 1M acetic acid, 1M ammonium hydroxide, 6M urea, 0.01M sodium metaperiodate, heating at 56° C. for 30 minutes, glycosidases or lipases",[5]; listed as Epithelin 1,resistant
same,effect on 125I-deoxyuridine incorporation into DNA of Balb/MK cells,Balb/MK cells [6],stimulated the ^125 I-deoxyuridine incorporation in a dose-dependent manner
same,mitogenic activity on NRK cells in monolayer,NRK cells,exhibited mitogenic activity
same,effect on growth of Balb/MK cells (rodent keratinocytes),Balb/MK cells [2],did not proliferate in the absence of EGF or epithelin 1
